From patent US20130288923, “Nucleotide-Based Probes and Methods for the Detection and Quantification of Macromolecules and Other Analytes” (THE REGENTS OF THE UNIVERSITY OF CALIFORNIA, published 2013)

Biological target: TATA binding protein (TBP) (UniProt P20226 P20226:1-339)
Experiment: square wave voltammetry; nM detection in buffer and in 250 ug/mL HeLa nuclear extract
Settings: tags: recombinantly expressed and purified (Bonham 2009); label: 5'-C6-thiol (gold electrode), internal methylene blue; double stem-loop / single stem-loop switch containing TBP recognition duplex
Experimental: The ability of the TBP transcription factor electrochemical probe to function in HeLa nuclear cell extract was also tested (FIG. 14(b). The probe directed against TBP was titrated with its target protein against a background of 250 μg/mL crude HeLa nuclear extract (FIG. 14(b), producing a binding curve similar to that observed in buffer (FIG. 14(b). This binding curve was slightly offset from the curve obtained in buffer. Without being limited to any particular theory, a possible explanation for this shift was that this was a contribution from the endogenous TBP present in cell extract. The TBP transcription factor electrochemical probe provided the convenient quantification of transcription factors in cell extract. The sensor's response in buffer, cell extract and, finally, extract to which a large excess of TBP had been added were measured. These measurements were used to calculate the concentration of TF in the sample, C, via the following relationship: […]

Sequence of TATA binding protein (TBP) (P20226 whole entry, one chain of several): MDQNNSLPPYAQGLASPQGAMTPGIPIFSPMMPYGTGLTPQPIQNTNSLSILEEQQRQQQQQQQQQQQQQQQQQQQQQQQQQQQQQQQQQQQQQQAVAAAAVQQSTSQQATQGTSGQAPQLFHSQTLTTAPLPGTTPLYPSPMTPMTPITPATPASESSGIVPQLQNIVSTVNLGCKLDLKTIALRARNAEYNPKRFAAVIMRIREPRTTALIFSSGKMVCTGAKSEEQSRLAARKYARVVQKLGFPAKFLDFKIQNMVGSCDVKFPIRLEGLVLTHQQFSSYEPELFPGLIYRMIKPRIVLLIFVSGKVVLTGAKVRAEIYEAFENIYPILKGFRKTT

B1: TBP electrochemical probe (structured_DNA)
DNA: GAATAGGTTCCTATAAAAGGTTGGTTTTATAAACCTATCCTATTC
binding result: binds
